Data set [1] deals with fluorescein-labeled, wild-type FusA leader peptide (Thermobifida fusca). Nature of the data set: fluorescence polarisation.
The nature of a further data set: solubility. It is filed as physicochemical. The conditions noted are these: qualitative statement; prevented NMR.
Data set [2] is described as follows: MALDI-TOF MS-based hydrogen-deuterium exchange assay. It is filed as physicochemical. The conditions noted are these: H-D exchange, MALDI-TOF MS read-out (Fig. S10).
The next data set concerns the target T1, carboxypeptidase Y (Saccharomyces cerevisiae, UniProt P00729).
T1 sequence (P00729 112-532): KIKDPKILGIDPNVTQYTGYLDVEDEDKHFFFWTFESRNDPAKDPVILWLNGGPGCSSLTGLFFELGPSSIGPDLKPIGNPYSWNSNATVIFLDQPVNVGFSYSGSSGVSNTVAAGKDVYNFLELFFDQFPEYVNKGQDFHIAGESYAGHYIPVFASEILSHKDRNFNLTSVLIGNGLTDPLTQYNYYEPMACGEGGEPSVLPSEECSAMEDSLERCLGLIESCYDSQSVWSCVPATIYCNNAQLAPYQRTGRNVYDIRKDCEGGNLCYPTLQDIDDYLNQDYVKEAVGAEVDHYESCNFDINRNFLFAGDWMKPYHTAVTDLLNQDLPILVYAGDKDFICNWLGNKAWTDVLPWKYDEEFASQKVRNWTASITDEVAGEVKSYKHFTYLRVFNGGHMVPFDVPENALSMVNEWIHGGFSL
The experiment in a line: carboxypeptidase Y digestion. Format: in vitro ADME. As to conditions: carboxypeptidase Y digestion for 18 h; analysis by MS (Fig. S11).

For the substance FusE G31V variant (natural protein), in data set [1], the fold reduction of leader peptide binding against wild-type FusE was 2 fold.
FusE-D74A (natural protein) had a fold reduction of affinity against wild-type FusE in data set [1] of 8 fold.
Substance FusE-L78A (natural protein) gave a fold reduction of affinity against wild-type FusE in data set [1] of 10 fold.
In the case of fusilassin, in “solubility”, the solubility characteristics result is on record as “poor”. Also, in data set [2], the “time to full deuteration” value is on record as ~ 60 min. For the same substance, at carboxypeptidase Y, the “outcome of carboxypeptidase Y digestion” value was “vast majority of the fusilassin peptide remained intact”.

Source of the values: article PMC7368380 (Journal of the American Chemical Society, 2018).
